# Test results reported in the supplement of paper PMC9112550, “Optimization of the antimicrobial peptide Bac7 by deep mutational scanning” (BMC Biology, 2022).
# Tested on: Escherichia coli TOP10
# Test: shrunken log2 fold change of peptide-encoding DNA abundance (4.5 h post-induction vs induction); higher = less antimicrobial activity (less host growth inhibition)
# Conditions: time post-induction: 4.5 h; library: site-saturation at positions 5, 18, 19, 20
# 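Note: peptides expressed intracellularly from a pBAD plasmid library in pooled LB shake-flask culture, induced with 0.3% L-arabinose, DNA abundance read by NGS, three biological replicates, DESeq2 with apeglm shrinkage.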
row,Sequence,shrunken log2 fold change
1,RRIRERPPRLPRPRPRPKCWPRP,0.23
2,RRIRFRPPRLPRPRPRPVTIPRP,-0.118
3,RRIRYRPPRLPRPRPRPTSDPRP,-0.459
4,RRIRSRPPRLPRPRPRPQHCPRP,-0.0942
5,RRIRTRPPRLPRPRPRPNGWPRP,0.215
6,RRIRKRPPRLPRPRPRPGMMPRP,0.308
7,RRIRFRPPRLPRPRPRPNWLPRP,-0.0999
8,RRIRSRPPRLPRPRPRPDDEPRP,0.0222
9,RRIRRRPPRLPRPRPRPNRAPRP,3.1
10,RRIRMRPPRLPRPRPRPAWQPRP,0.197
11,RRIRQRPPRLPRPRPRPTLWPRP,0.0794
12,RRIRVRPPRLPRPRPRPAQRPRP,0.184
13,RRIRKRPPRLPRPRPRPKTMPRP,0.185
14,RRIRQRPPRLPRPRPRPSLGPRP,-0.162
15,RRIRERPPRLPRPRPRPEYFPRP,-0.0105
16,RRIRDRPPRLPRPRPRPVTHPRP,-0.0987
17,RRIRERPPRLPRPRPRPMHGPRP,-0.00992
18,RRIRDRPPRLPRPRPRPQDVPRP,-0.254
19,RRIRKRPPRLPRPRPRPKQWPRP,0.216
20,RRIRERPPRLPRPRPRPVFPPRP,0.242
21,RRIRVRPPRLPRPRPRPGIDPRP,-0.143
22,RRIRMRPPRLPRPRPRPSRVPRP,0.885
23,RRIRQRPPRLPRPRPRPQLLPRP,-0.00691
24,RRIRERPPRLPRPRPRPDMFPRP,-0.0153
25,RRIRLRPPRLPRPRPRPPPQPRP,1.12

row,Sequence,shrunken log2 fold change
1,RRIRARPPRLPRPRPRPMLSPRP,0.133
2,RRIRFRPPRLPRPRPRPTCYPRP,-0.23
3,RRIRMRPPRLPRPRPRPMEEPRP,2.45
4,RRIRNRPPRLPRPRPRPEKAPRP,-0.0149
5,RRIRSRPPRLPRPRPRPYYPPRP,-2.8
6,RRIRRRPPRLPRPRPRPWYYPRP,-0.293
7,RRIRRRPPRLPRPRPRPHRCPRP,0.0585
8,RRIRHRPPRLPRPRPRPDNLPRP,0.0139
9,RRIRTRPPRLPRPRPRPDELPRP,-0.0838
10,RRIRRRPPRLPRPRPRPLSYPRP,-0.0226
11,RRIRVRPPRLPRPRPRPQTAPRP,0.0297
12,RRIRYRPPRLPRPRPRPPWSPRP,-0.372
13,RRIRHRPPRLPRPRPRPEVWPRP,0.714
14,RRIRSRPPRLPRPRPRPPGVPRP,0.293
15,RRIRTRPPRLPRPRPRPRAEPRP,0.28
16,RRIRHRPPRLPRPRPRPGCMPRP,-0.0922
17,RRIRQRPPRLPRPRPRPKWRPRP,0.0839
18,RRIRSRPPRLPRPRPRPEIDPRP,0.166
19,RRIRTRPPRLPRPRPRPHVKPRP,-0.126
20,RRIRVRPPRLPRPRPRPSYMPRP,-1.16
21,RRIRIRPPRLPRPRPRPHKCPRP,-0.639
22,RRIRSRPPRLPRPRPRPHVSPRP,-0.0482
23,RRIRLRPPRLPRPRPRPHEVPRP,-0.0201
24,RRIRTRPPRLPRPRPRPSMNPRP,-0.28
25,RRIRHRPPRLPRPRPRPALFPRP,-0.0554

row,Sequence,shrunken log2 fold change
1,RRIRNRPPRLPRPRPRPKRSPRP,0.115
2,RRIRWRPPRLPRPRPRPECGPRP,1.37
3,RRIRVRPPRLPRPRPRPINHPRP,-0.464
4,RRIRKRPPRLPRPRPRPNVEPRP,0.192
5,RRIRMRPPRLPRPRPRPMEWPRP,0.379
6,RRIRCRPPRLPRPRPRPTQKPRP,0.0827
7,RRIRVRPPRLPRPRPRPVGWPRP,0.77
8,RRIRFRPPRLPRPRPRPPPFPRP,0.608
9,RRIRLRPPRLPRPRPRPMHIPRP,0.0952
10,RRIRIRPPRLPRPRPRPVKIPRP,0.0113
11,RRIRRRPPRLPRPRPRPIFPPRP,0.69
12,RRIRDRPPRLPRPRPRPHAAPRP,0.458
13,RRIRARPPRLPRPRPRPKCLPRP,0.613
14,RRIRTRPPRLPRPRPRPSLHPRP,-0.604
15,RRIRHRPPRLPRPRPRPYCCPRP,-0.305
16,RRIRGRPPRLPRPRPRPDGEPRP,0.259
17,RRIRRRPPRLPRPRPRPGALPRP,0.502
18,RRIRTRPPRLPRPRPRPICRPRP,0.0229
19,RRIRERPPRLPRPRPRPFLNPRP,-0.0647
20,RRIRNRPPRLPRPRPRPKMCPRP,-0.0269
21,RRIRLRPPRLPRPRPRPKYTPRP,-0.61
22,RRIRTRPPRLPRPRPRPTCTPRP,-0.094
23,RRIRWRPPRLPRPRPRPPYMPRP,-0.16
24,RRIRQRPPRLPRPRPRPPIFPRP,0.163
25,RRIRPRPPRLPRPRPRPQLKPRP,0.202
